# Target: M6P receptor (M6PR) (human)
# Assay: cell-based or functional assay
binder,measurement,value
"Agalsidase alfa (Shire, Replagal) (enzyme, UniProt P06280 32-429, looked up, heterogeneous N-glycans, about 24% phosphorylated (M6P) glycans) LDNGLARTPTMGWLHWERFMCNLDCQEEPDSCISEKLFMEMAELMVSEGWKDAGYEYLCIDDCWMAPQRDSEGRLQADPQRFPHGIRQLANYVHSKGLKLGIYADVGNKTCAGFPGSFGYYDIDAQTFADWGVDLLKFDGCYCDSLENLADGYKHMSLALNRTGRSIVYSCEWPLYMWPFQKPNYTEIRQYCNHWRNFADIDDSWKSIKSILDWTSFNQERIVDVAGPGGWNDPDMLVIGNFGLSWNQQVTQMALWAIMAAPLFMSNDLRHISPQAKALLQDKDVIAINQDPLGKQGYQLRQGDNFEVWERPLSGLAWAVAMINRQEIGGPRSYTIAVASLGKGVACNPACFITQLLPVKRKLGFYEWTSRLRSHINPTGTVLLQLENTMQMSLKDLL",intracellular α-gal A activity of Fabry patient fibroblasts after 18 hours incubation with 10 µg/ml enzyme (fold of untreated cells),116 fold
